Consider one substance from doi:10.1101/2025.02.26.640323, “Aggregation-Dependent Epitope Sequence and Modification Fingerprints of Anti-Aβ Antibodies” (bioRxiv, 2025).

Entries after “also recorded” stand apart in the source; their conditions may differ.

In one series the test system is synthetic Aβ peptides. Put plainly: Peptide Bicine-Tris SDS-PAGE/Western blot. It counts as binding. The following applies: PVDF, 50 ng per peptide, 0.5 μg/mL antibody.
Series [1] has as its system Aβ1–42 monomer, oligomer and fibril preparations; AβpE3–40. Put plainly: Bistris-SDS gradient PAGE/Western blot. It counts as binding. To be noted: 4–12% Bistris SDS-PAGE. The protocol: No SPR-487B) (StressMarq biosciences, Victoria, BC, Canada). The samples for electrophoresis were prepared (starting from stock solutions) with final concentrations of 0.1 μg/μL) in LDS sample buffer (247.5 mM Tris-HCl, pH 8.5, 2% (w/v) lithium dodecyl sulfate (LDS), 10% (v/v) glycerol, 0.5 mM EDTA, 0.22 mM Brilliant Blue G250, 0.175 mM Phenol Red) and denatured by heating at 70°C for 10 min. […] The prechilled transfer buffer contained 25 mM Tris, 192 mM glycine, 20% (v/v) methanol and 0.0375 % Tween-20. After blotting, the membrane was washed for 10 min at room temperature in Tris-buffered saline (TBS) followed by blocking for 30 min with 5% powdered milk in TBS containing 0.1% Tween-20 (TBS-T). The blots were then incubated with primary antibodies in 5% milk in TBS-T over night at 4°C and washed 3 × for 10 min with TBS-T at room temperature. […] After 1 h incubation with the secondary antibodies, the blots were washed 3 × for 10 min with TBS-T and incubated for 5 min with ECL-Prime Western Blotting Detection Reagent (Cytiva Amersham, Little Chalfont, England). Images were recorded on a Vilber-Loumart Fusion SL blot imager. […] That way, the 4G8 reprobing signals were essentially added on top of the initial signals and background artifacts.
(In general: Immunoblotting shows a protein as a band on a membrane.)

A further series relates to AβpE3-x. Put plainly: PTM-Aβ microarray, pE3. The class given is binding, human. The following applies: Donanemabbs 0,0012μg/mL, 2–48, Aβ-pE3, IC16 […], vs Aβ3-x with non-cyclized Glu. The text has this:
Specific PTMs might be associated with different stages of AD progression and severity, offering potential biomarkers for diagnosis and prognosis. Targeting PTMs represents a potential therapeutic strategy to prevent Aβ aggregation and neurotoxicity, thereby slowing disease progression. […] Therefore, a selected group of PTM-carrying Aβ peptides (PTM-Aβ) were incorporated into the Aβ chip to explore the potential binding preference of selected Aβ-Abs, under optimized concentrations (Figure 3). The antibodies were tested with both PTM-Aβ and the corresponding unmodified variants to provide a head-to-head comparison. This screening was performed in the presence of Aβ phosphorylated at positions Ser(8) or Ser(26), N-terminal pE at position 3, racemization/isomerization of Asp at position 1, and unmodified N-terminal variants. The dataset is divided into sections (Figure 3 a–f) for enhanced visualization, where each antibody was screened simultaneously against all peptides to locate their epitope preferences. […] A set of antibodies without reported PTM preference was applied here as controls (refer to Table 1), namely 11H3, 101–1-1, IC16, 82E1 and 3D6.
Figure 3. […] Blue and red shades indicate the binding strength over the related arrayed […] modified peptide shown on top and cognate anti-Aβ antibody to the left. […]

Series [2] relates to synthetic Aβ peptide variants. Put plainly: Capillary isoelectric focusing (CIEF) immunoassay. The class given is binding. The protocol: Automated capillary isoelectric focusing immunoassays were performed with a Peggy-Sue system (ProteinSimple,San Jose, California, USA), essentially as previously described and [53].
In brief, synthetic Aβ peptide variants were separated by isoelectric focusing in microcapillaries followed by photochemical immobilization to the inner capillary walls and probing with the primary antibodies for 120 min. After 2 washes, the horseradish peroxidase conjugated secondary antibodies were loaded and incubated for 60 min. After two washing steps, a luminol/peroxide mix was loaded, and chemiluminescent signals were recorded. The data was analyzed with the Compass for SW software. The following secondary antibodies were used: Anti-human IgG Secondary HRP antibody (Protein Simple, catalog number 043–491), Goat-Anti-Mouse-HRP Secondary Antibody ProteinSimple, catalog number 040–655) and Peroxidase-conjugated Affini Pure Donkey Anti-Human IgG (H+L) (1:100 dilution) (Jackson ImmunoResearch Laboratories Inc., West Grove, PA, code number 709–035-149).

“Donanemabbs: humanized monoclonal, biosimilar of Donanemab, Proteogenix (#PX-TA1549)”: in the series with synthetic Aβ peptides, the “Aβ variants detected on Bicine-Tris SDS-PAGE/Western blot” value was “detected AβpE3–40 and Aβ3–40”. Also, in series [1], the “detection of AβpE3–40, Bistris Western blot” value was “detected multiple AβpE3–40 bands in the low Mwrange”; the “detection of HFIP-treated monomeric, oligomeric and fibrillar Aβ1–42” value is listed as “very faint signals”. For the same substance, the “selectivity for / binding to AβpE3-x” value in the series with AβpE3-x was “high selectivity for Aβ peptides starting with an N-terminal pE”. Moreover, the “signals with other N-terminal Aβ variants (CIEF and Bicine-Tris Western blot)” value in series [2] was “no or very small signals”. For the same substance, the “preference of Aβ variant (CIEF and Bicine-Tris Western blot)” value in series [2] (AβpE3–40 vs Aβ3–40) was “clear preference for the Aβ variant starting with the cyclized N-terminal pE; also recorded: high preference for pyroglutamate bearing pEAβ3–40”. The “Aβ variants detected on CIEF-immunoassay” value in series [2] (Peggy Sue, chemiluminescence) was “detected AβpE3–40 and Aβ3–40”.
